Five molecules from patent US20160068605A1 (Janssen / Centocor, published 2016) can be followed below.

Broadly, the Kd is a measure of binding affinity in units of concentration. What is called koff is a measure of how fast the partners let go of each other. As a reminder, the kon is a measure of how fast the partners come together.

The target of experiment [1] is T1, Recombinant human CD123 SP1 ECD-His tag protein (human, UniProt P26951 20-305).
T1 construct: bought from R&D Systems (#301-R3/CF); biotinylated for some assays; also called rhCD123 SP1; huCD123 ECD SP1
T1 sequence: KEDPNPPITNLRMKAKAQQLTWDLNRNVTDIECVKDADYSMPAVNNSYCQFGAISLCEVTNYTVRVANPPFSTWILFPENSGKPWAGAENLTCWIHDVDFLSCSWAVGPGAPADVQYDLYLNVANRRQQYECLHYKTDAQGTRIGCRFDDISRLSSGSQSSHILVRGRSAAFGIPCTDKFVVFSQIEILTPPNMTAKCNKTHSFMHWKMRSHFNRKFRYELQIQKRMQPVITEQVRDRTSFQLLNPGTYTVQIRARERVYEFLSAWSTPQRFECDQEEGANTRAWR
In words: SPR ProteOn, captured mAb.

For experiment [2], the target named is T2, Recombinant human CD123 SP2 ECD protein (human, UniProt P26951 101-303).
T2 construct: also called rhCD123 SP2; CD123 ECD SP2
T2 sequence: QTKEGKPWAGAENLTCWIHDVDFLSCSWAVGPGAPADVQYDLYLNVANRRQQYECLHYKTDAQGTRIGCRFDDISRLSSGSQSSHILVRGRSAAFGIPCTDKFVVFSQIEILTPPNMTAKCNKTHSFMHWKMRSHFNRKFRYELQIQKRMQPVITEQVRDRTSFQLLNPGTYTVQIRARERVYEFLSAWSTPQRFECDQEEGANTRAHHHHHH
In words: SPR ProteOn, captured mAb.

Experiment [3] addresses T3, human CD123 SP2 ECD displayed on pDisplay-transfected cells (human, UniProt P26951 101-305).
T3 construct: ECD anchored on the surface of stably transfected HEK293 cells; also called hCD123 SP2 cells; pDisplay CD123SP2
T3 sequence: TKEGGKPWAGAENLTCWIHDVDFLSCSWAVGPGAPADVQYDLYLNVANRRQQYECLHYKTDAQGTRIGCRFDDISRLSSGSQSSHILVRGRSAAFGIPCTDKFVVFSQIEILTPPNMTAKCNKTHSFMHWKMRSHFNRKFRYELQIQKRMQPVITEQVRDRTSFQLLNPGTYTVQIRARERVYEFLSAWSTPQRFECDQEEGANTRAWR
In words: MSD-CAT on pDisplay cells. How it is done:
(§1) The MSD-CAT was developed in-house as a label-free method to determine affinity using intact cells in a high throughput format. […] Cell lines used were human pDisplay CD123SP1 and pDisplay CD123SP2. […] These samples were prepared in DMEM Glutamax medium containing 0.05% Azide, 1% BSA, 3 mM EDTA. […] After equilibration the plate was centrifuged for 5 minutes ˜1000 rpm and free anti-CD3 detected on the supernatant. […] The assay buffer was removed without washing and 50 uL/well of 0.7 ug/mL of biotinylated antigen in assay buffer were added to MSD plates and incubated overnight (˜16 hours at 4° C.).

Experiment [4] has as its target T1, Recombinant human CD123 SP1 ECD-His tag …. The experiment in a line: SPR Biacore 3000, captured mAb. How it is done: (§2) Kinetic studies were performed at 25° C. using a Biacore 3000 (BIAcore, Inc., now part of GE Healthcare). […] Sheep anti-Human Fd specific antibody (The binding site Prod # PC075) was covalently attached to two flow cells (normally 3 and 4) of the carboxymethyl dextran coated gold surfaces (CM-5 Chip, Biacore). The carboxymethyl groups of dextran were activated with N-Ethyl-N′-(3-Dimethylaminopropyl)carbodiimide (EDC) and N-hydroxysuccinimide (NHS). The antibodies were coupled at pH 4.5 in 10 mM sodium acetate. Any remaining reactive sites on the surface were blocked by reaction with ethanolamine. […] Association data was collected for 2 min followed by 10 min of dissociation. The surface was regenerated with 30 μL of 100 mM H3PO4 100 μL/min. All samples were prepared in D-PBS containing 3 mM EDTA and 0.005% surfactant P20. Data reported is the difference in SPR signal between the flow cell containing the captured antibody or Fab and a reference cell without captured antibody or Fab. Additional instrumental contributions to the signal were removed by subtraction of the data from the blank injection from the reference-subtracted signal. Data were performed in triplicate and analyzed by fitting association and dissociation phases at all concentrations (global fit) with a 1:1 binding model using the BIAevaluation software (BIAcore, Inc.). […] Data presented is an average.

Experiment [5] addresses T2, Recombinant human CD123 SP2 ECD protein. In words: SPR Biacore 3000, captured mAb. How it is done: as §2
A general note: Surface plasmon resonance follows binding to a sensor surface in real time, without labels.

Experiment [6] addresses T4, human CD123 SP1 ECD displayed on pDisplay-transfected cells (human, UniProt P26951 20-305).
T4 construct: ECD anchored on the surface of stably transfected HEK293 cells by the PDGFR transmembrane domain; also called hCD123 SP1 cells; hCD123 cells
T4 sequence: T1 sequence
In words: MSD-CAT on pDisplay cells. How it is done:
as §1

For experiment [7], the target named is T1, Recombinant human CD123 SP1 ECD-His tag …. In words: SPR Biacore T200, captured antibody. How it is done: (§3) Kinetic studies were performed at 25° C. using a Biacore T200 (Biacore, Inc., now part of GE Healthcare). […] The carboxymethyl groups of dextran were activated with N-Ethyl-N′-(3-Dimethylaminopropyl)carbodiimide (EDC) and N-hydroxysuccinimide (NHS). The anti-Fc antibody was coupled at pH 4.5 in 10 mM sodium acetate. Any remaining reactive sites on the surface were blocked by reaction with ethanolamine. […] 40-70 RU of antibody were captured. […] Association data was collected for 2 min followed by 10 min of dissociation. The surface was regenerated with 30 μL of 100 mM H3PO4 100 μL/min, followed by 50 mM NaOH. The samples for kinetic analysis were prepared in PBS-based buffer (D-PBS containing 3 mM EDTA and 0.005% surfactant P20). Data reported is the difference in SPR signal between the flow cell containing the captured antibody and a reference cell without captured antibody. Additional instrumental contributions to the signal were removed by subtraction of the data from the blank injection from the reference-subtracted signal. Data were analyzed by fitting association and dissociation phases at all concentrations (global fit) with a 1:1 binding model using the BIAevaluation software (BIAcore, Inc.).

For experiment [8], the target named is T2, Recombinant human CD123 SP2 ECD protein. In words: SPR Biacore T200, captured antibody. Here is the method: as §3
Experiment [9] concerns the target T5, cell-surface CD3 epsilon on primary cynomolgus T cells (cynomolgus monkey, UniProt Q95LI5 22-198).
T5 construct: whole, on cells; also called cynomolgus CD3e; Cyno T-cells
In words: flow cytometry competition with labeled CD3B146 on T cells. An excerpt: (§4) The format involved competition binding using a fixed concentration of labeled anti-CD3 mAb of known affinity and increasing concentrations of unlabeled test Abs (Ashkenazi A et al. PNAS: 88:10535, 1991.).

Experiment [10] deals with T6, cell-surface CD3 epsilon on primary human T cells (human, UniProt P07766 23-207).
T6 construct: whole, on cells; part of the CD3/TCR complex on the cells
T6 sequence (P07766 23-207): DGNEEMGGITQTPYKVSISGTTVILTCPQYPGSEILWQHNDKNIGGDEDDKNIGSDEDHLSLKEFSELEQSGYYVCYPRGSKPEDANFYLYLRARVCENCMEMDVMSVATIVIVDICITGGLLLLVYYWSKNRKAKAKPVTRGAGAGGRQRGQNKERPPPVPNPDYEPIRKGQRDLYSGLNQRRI
Described as above.
Text: as §4

Experiment [11] addresses T6, cell-surface CD3 epsilon on primary …. In words: competition flow cytometry on primary human T cells (Human Donor 10357); competitor displaced: Alexa Fluor 488-labelled CD3B146.
Text: as §4
On the technique in general: In flow cytometry, cells or beads pass a laser one at a time.

Positions count from the first letter of the chain named.

T5 sequence (Q95LI5 22-198): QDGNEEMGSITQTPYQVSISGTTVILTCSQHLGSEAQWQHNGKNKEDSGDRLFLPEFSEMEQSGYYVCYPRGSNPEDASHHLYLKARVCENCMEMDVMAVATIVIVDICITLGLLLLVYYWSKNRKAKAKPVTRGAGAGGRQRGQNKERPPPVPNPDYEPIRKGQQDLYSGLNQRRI

B1: I3RB2 (antibody, IgG1, V domains shown)
VH: EVQLLESGGGLVQPGGSLRLSCAASGFTFSGYWMHWVRQAPGKGLEWVSAIRSDGSSKYYADSVKGRFTISRDNSKNTLYLQMNSLRAEDTAVYYCAKDGVIEDTFDYWGQGTLVTVSS
VL: EIVLTQSPATLSLSPGERATLSCRASQSVSSYLAWYQQKPGQAPRLLIYDASNRATGIPARFSGSGSGTDFTLTISSLEPEDFAVYYCQQRSNWPLTFGQGTKVEIK
notes: IgG1; also called I3RB02; 13RB2
Take B1: the Kd in [1] is 4.5 nM; in [2], 1.85 nM; in experiment [3], 0.036 nM; in [4], 7.7 nM; in experiment [5] it was 1.4 nM. For the same molecule, the koff was 0.00477 s⁻¹ in experiment [1], 0.00335 s⁻¹ in experiment [2] and 0.00372 s⁻¹ in experiment [4]. Also, the kon in experiment [1] was determined as 1.06e+06 M⁻¹ s⁻¹; in experiment [2], 1.81e+06 M⁻¹ s⁻¹; in experiment [4], 481000 M⁻¹ s⁻¹.

B2: bispecific antibody 9958 Ab (bispecific antibody, human IgG4 S228P, kappa, lambda, F234A L235A)
heavy 1: EVQLVESGGGLVQPGGSLKLSCAASGFTFNTYAMNWVRQASGKGLEWVGRIRSKYNAYATYYAASVKGRFTISRDDSKNTAYLQMNSLKTEDTAVYYCTRHGNFGNSYVSWFAYWGQGTLVTVSSASTKGPSVFPLAPCSRSTSESTAALGCLVKDYFPEPVTVSWNSGALTSGVHTFPAVLQSSGLYSLSSVVTVPSSSLGTKTYTCNVDHKPSNTKVDKRVESKYGPPCPPCPAPEAAGGPSVFLFPPKPKDTLMISRTPEVTCVVVDVSQEDPEVQFNWYVDGVEVHNAKTKPREEQFNSTYRVVSVLTVLHQDWLNGKEYKCKVSNKGLPSSIEKTISKAKGQPREPQVYTLPPSQEEMTKNQVSLTCLVKGFYPSDIAVEWESNGQPENNYKTTPPVLDSDGSFLLYSKLTVDKSRWQEGNVFSCSVMHEALHNHYTQKSLSLSLGK
light 1: QAVVTQEPSLTVSPGGTVTLTCRSSTGAVTTSNYANWVQQKPGQAPRGLIGGTNKRAPGTPARFSGSLLGGKAALTLSGAQPEDEAEYYCALWYSNLWVFGGGTKLTVLGQPKAAPSVTLFPPSSEELQANKATLVCLISDFYPGAVTVAWKADSSPVKAGVETTTPSKQSNNKYAASSYLSLTPEQWKSHRSYSCQVTHEGSTVEKTVAPTECS
heavy 2: not shown
light 2: EIVLTQSPGTLSLSPGERATLSCRASQSVSSSYLAWYQQKPGQAPRLLIYGASSRATGIPDRFSGSGSGTDFTLTISRLEPEDFAVYYCQQDYGFPWTFGQGTKVEIKRTVAAPSVFIFPPSDEQLKSGTASVVCLLNNFYPREAKVQWKVDNALQSGNSQESVTEQDSKDSTYSLSSTLTLSKADYEKHKVYACEVTHQGLSSPVTKSFNRGEC
notes: IgG4-PAA; CD3 arm of CD3B220, CD123 arm of I3RB217 (I3RB18)
As to B2, the Kd in [6] was determined as 0.121 nM; in experiment [3] it was 0.538 nM; in [7], 1.34 nM; in experiment [8], 0.311 nM; in experiment [9], 29.1 nM; in experiment [10], 43 nM. Also, the koff in experiment [7] was determined as 0.00079 s⁻¹; in [8], 0.0011 s⁻¹. The kon in experiment [7] amounted to 587000 M⁻¹ s⁻¹; in [8], 3.57e+06 M⁻¹ s⁻¹. Besides, the “IC50 (read off the curve)” value in [11] was about 80 nM.

B3: bispecific antibody Ab 7959 (bispecific antibody, human IgG4 S228P, kappa, lambda, F234A L235A)
heavy 1: B2 heavy 1 with K19R, S41P, G49A, A57N, T80S, A81L, T99A
light 1: B2 light 1 with A2T, A80V
heavy 2: not shown
light 2: B2 light 2
notes: IgG4-PAA; CD3 arm of CD3B219, CD123 arm of I3RB217 (I3RB18)
For the molecule B3, the Kd in experiment [6] came to 0.149 nM; in experiment [3] it was 0.461 nM; in experiment [7], 1.53 nM; in [8], 0.335 nM; in experiment [9] it was 11.2 nM; in experiment [10], 11 nM. The koff in experiment [7] was 0.00088 s⁻¹; in experiment [8], 0.0013 s⁻¹. In addition, the kon amounted to 579000 M⁻¹ s⁻¹ in [7] and 3.78e+06 M⁻¹ s⁻¹ in experiment [8]. The “IC50 (read off the curve)” value in experiment [11] is about 20 nM.

B4: bispecific antibody Ab 8747 (bispecific antibody, human IgG4 S228P, kappa, lambda, F234A L235A)
heavy 1: B2 heavy 1 with K19R, S41P, G49A, A57N, T80S, A81L, T99A
light 1: B2 light 1 with A2T, A80V
heavy 2: not shown
light 2: not shown
In the case of B4, the Kd in experiment [6] was 1.76 nM; in [3], 2.21 nM; in experiment [7], 14.3 nM; in [8], 1.63 nM; in experiment [9] it was 9.5 nM; in [10], 9.6 nM. In addition, the koff is 0.0048 s⁻¹ in experiment [7] and 0.0052 s⁻¹ in [8]. Further, the kon was determined as 337000 M⁻¹ s⁻¹ in [7] and 3.19e+06 M⁻¹ s⁻¹ in experiment [8]. The “IC50 (read off the curve)” value in experiment [11] is about 20 nM.

B5: bispecific antibody Ab 5466 (bispecific antibody, human IgG4 S228P, kappa, lambda, F234A L235A)
heavy 1: B2 heavy 1
light 1: B2 light 1
heavy 2: not shown
light 2: not shown
Consider B5, for which the Kd in experiment [6] is 2.43 nM; in experiment [3], 1.72 nM; in [7], 13.7 nM; in experiment [8], 1.69 nM; in [9], 25.3 nM; in [10], 27.9 nM. Moreover, the koff in [7] came out at 0.0051 s⁻¹; in experiment [8], 0.0049 s⁻¹. For the same molecule, the kon in experiment [7] is 371000 M⁻¹ s⁻¹; in experiment [8], 2.88e+06 M⁻¹ s⁻¹. The “IC50 (read off the curve)” value in [11] is about 70 nM.
